Laboratory results from US20240368668A1, “SUBSTRATES AND BIOMARKERS OF ADAMTS7” (The Broad Institute, Inc., priority 2021, published 2024).
Square brackets hold non-standard residues; d marks the D form. Ends that are not written are not given here.

Target: T1, mouse ADAMTS7 (Mus musculus, UniProt Q68SA9)
T1 construct: Full-length mouse Adamts7 1-1857 (Uniprot Q68SA9, WT or E373Q catalytic mutant); expressed in transfected cells; host or cells: Human Coronary Artery Smooth Muscle Cells (HCA-SMC, Lonza), adenovirus 50 MOI
T1 sequence (Q68SA9 221-1657): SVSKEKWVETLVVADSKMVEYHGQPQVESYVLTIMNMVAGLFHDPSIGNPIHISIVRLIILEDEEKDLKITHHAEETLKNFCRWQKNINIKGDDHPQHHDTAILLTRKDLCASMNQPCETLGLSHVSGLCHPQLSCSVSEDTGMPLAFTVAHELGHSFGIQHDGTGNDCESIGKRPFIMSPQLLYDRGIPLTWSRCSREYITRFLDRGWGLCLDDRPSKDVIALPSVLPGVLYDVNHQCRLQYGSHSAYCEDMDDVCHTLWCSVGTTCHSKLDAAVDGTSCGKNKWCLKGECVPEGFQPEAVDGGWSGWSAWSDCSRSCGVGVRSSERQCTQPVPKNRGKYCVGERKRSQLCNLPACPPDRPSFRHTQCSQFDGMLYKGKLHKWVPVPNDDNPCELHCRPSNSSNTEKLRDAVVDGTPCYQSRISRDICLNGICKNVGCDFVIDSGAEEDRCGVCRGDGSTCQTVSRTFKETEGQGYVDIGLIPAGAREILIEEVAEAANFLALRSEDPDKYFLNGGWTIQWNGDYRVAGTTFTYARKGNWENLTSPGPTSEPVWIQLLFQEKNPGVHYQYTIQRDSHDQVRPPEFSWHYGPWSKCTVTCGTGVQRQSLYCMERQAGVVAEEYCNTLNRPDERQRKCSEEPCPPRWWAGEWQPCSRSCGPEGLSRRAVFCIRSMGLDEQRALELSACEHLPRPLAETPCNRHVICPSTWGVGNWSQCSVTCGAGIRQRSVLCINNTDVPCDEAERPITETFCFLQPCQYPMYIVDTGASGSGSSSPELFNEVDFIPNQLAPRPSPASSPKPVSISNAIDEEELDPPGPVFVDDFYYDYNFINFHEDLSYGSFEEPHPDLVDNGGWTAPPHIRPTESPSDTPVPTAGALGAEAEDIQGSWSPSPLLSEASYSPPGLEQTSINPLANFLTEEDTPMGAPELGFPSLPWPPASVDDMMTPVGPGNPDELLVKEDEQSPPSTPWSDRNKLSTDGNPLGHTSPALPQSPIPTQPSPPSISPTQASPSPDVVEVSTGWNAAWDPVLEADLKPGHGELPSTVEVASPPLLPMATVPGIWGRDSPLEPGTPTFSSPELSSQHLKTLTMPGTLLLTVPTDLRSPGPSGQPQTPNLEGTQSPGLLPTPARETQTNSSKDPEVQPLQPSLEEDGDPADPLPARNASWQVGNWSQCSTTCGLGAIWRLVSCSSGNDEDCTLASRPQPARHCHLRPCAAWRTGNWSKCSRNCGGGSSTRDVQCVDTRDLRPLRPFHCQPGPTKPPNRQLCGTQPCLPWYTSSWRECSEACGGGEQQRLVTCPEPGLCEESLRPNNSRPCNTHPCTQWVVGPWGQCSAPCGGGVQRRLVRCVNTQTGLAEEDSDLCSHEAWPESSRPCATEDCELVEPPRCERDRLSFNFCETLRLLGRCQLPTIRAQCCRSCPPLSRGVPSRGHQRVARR
Test: TMT10 TAILS N-terminomics, SMC1 experiment (Ad-mADAMTS7 WT vs EQ vs Luc, technical replicates, trypsin digest)
Type: cell-based
Details: TAILS neo-N-terminal peptide abundance; log fold change, Ad-mADAMTS7 WT over Luc
How it was run: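 Full-length mouse ADAMTS7 (WT or E373Q mutant, C-terminal 3xFLAG) or luciferase was transduced via adenovirus, 50 MOI, into HCA-SMC (SMC1, SMC2) or HUVEC. SMC1: pooled media, technical triplicates 400 ug; SMC2: process triplicates 300 ug; HUVEC: process triplicates 200 ug, bFGF2 10 ng/ml.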

HTRA1_33 (LAAGCPDR; listed as Homo sapiens)
logFC.mWT.over.Lux: 2.87

IFI30_43 (YKTGNLYLR; listed as Homo sapiens)
logFC.mWT.over.Lux: 3.19

IGFBP3_31 (SAGLGPVVR; listed as Homo sapiens)
logFC.mWT.over.Lux: 2.46

IGFBP3_32 (AGLGPVVR; listed as Homo sapiens)
logFC.mWT.over.Lux: 4.06

IGFBP3_200 (FSSESKR; listed as Homo sapiens)
logFC.mWT.over.Lux: 2.33

IGFBP7_101 (AAGGPGVSGVCVCKSR; listed as Homo sapiens)
logFC.mWT.over.Lux: 3.99

LASP1_123 (HEEFEKSR; listed as Homo sapiens)
logFC.mWT.over.Lux: 0.87

LGALS1_53 (HGDANTIVCNSKDGGAWGTEQR; listed as Homo sapiens)
logFC.mWT.over.Lux: 4.83

LGALS3BP_447 (FQAPSDYR; listed as Homo sapiens)
logFC.mWT.over.Lux: 4.70

LOXL1_219 (VASAGVIYPYQPR; listed as Homo sapiens)
logFC.mWT.over.Lux: 0.99

LOXL2_37 (FQQPAPEYHQPQAPANVAKIQLR; listed as Homo sapiens)
logFC.mWT.over.Lux: 3.37

LOXL2_38 ([code q]QPAPEYHQPQAPANVAKIQLR; not fully specified; listed as Homo sapiens)
logFC.mWT.over.Lux: 1.37

LOXL2_318 (AYKPEQPLVR; listed as Homo sapiens)
logFC.mWT.over.Lux: 0.78

LOX_58 (LSLGSQYQPQR; listed as Homo sapiens)
logFC.mWT.over.Lux: 0.88

LOX_80 (ANASAQQPR; listed as Homo sapiens)
logFC.mWT.over.Lux: 2.02

LOX_81 (NASAQQPR; listed as Homo sapiens)
logFC.mWT.over.Lux: 1.38

LOX_123 (HWFQAGYSTSR; listed as Homo sapiens)
logFC.mWT.over.Lux: 1.60

LOX_124 (WFQAGYSTSR; listed as Homo sapiens)
logFC.mWT.over.Lux: 3.70

LOX_126 (QAGYSTSR; listed as Homo sapiens)
logFC.mWT.over.Lux: 1.61

LTBP1_393 (LTATNFR; listed as Homo sapiens)
logFC.mWT.over.Lux: 4.03

LTBP1_494 (SVQIHQVSR; listed as Homo sapiens)
logFC.mWT.over.Lux: 2.61

LTBP1_540 (HQQVIPHVYPVAAKTQLGR; listed as Homo sapiens)
logFC.mWT.over.Lux: 2.83

LTBP1_546 (HVYPVAAKTQLGR; listed as Homo sapiens)
logFC.mWT.over.Lux: 3.62

LTBP2_485 (SVQIHQVAQVR; listed as Homo sapiens)
logFC.mWT.over.Lux: 1.80

LTBP2_533 (SGEPPRPLPPAAPR; listed as Homo sapiens)
logFC.mWT.over.Lux: 1.34

LTBP2_677 (SLGPGTCTLPLAQR; listed as Homo sapiens)
logFC.mWT.over.Lux: 0.90

LTBP2_760 (SSGALPGPAER; listed as Homo sapiens)
logFC.mWT.over.Lux: 1.54

LTBP2_1023 (GKCTNLEGSFR; listed as Homo sapiens)
logFC.mWT.over.Lux: 0.74

LTBP2_1371 (SGQKGHAPCSSVLGR; listed as Homo sapiens)
logFC.mWT.over.Lux: 1.24

LTBP2_1560 (TTYTECCCQDGEAWSQQCALCPPR; listed as Homo sapiens)
logFC.mWT.over.Lux: 0.94

LTBP2_1584 (SSEVYAQLCNVAR; listed as Homo sapiens)
logFC.mWT.over.Lux: 1.40
